Assay results taken from patent US20250152627A1, “COMPOSITIONS AND METHODS FOR ENHANCING IMMUNE CELL FUNCTION USING MODIFIED CELLS WITH GLYCOCALYX EDITING ENZYMES” (Cornell University, priority 2021, published 2025).

Experiments:
[1] = test system: 1E7 cells; test: NK cell cytotoxicity assay against 1E7 cells; type: cell-based; conditions: 1E7 target cells; NK cell to target cell ratio 5:1 or 10:1
Description: Target MCF10A cells were fluorescently labeled by incubation with 1 M CellTracker Green CMFDA Dye (Invitrogen) in MCF10A growth media for 10 minutes. 3×10^4 labeled target cells were suspended with varying ratios of NK-92 effector cells in 200 μL of growth media of target cell line in absent of IL-2 and cocultured in an ultra-low attachment U-bottom 96-well plate (Corning) for 4 hours at 37° C. in 5% C02. For all StcE-treated NK cell experiment, unless otherwise indicated, NK cells were incubated with 100 nM StcE at 37° C. for 1 hour. Cells were thoroughly washed to remove StcE and coculture with target cells. After 4 hours, propidium iodide (PI; 20 μg/mL, Sigma) was added to each well for 10 minutes and washed with 0.5% BSA PBS. […] NK cell cytotoxicity was evaluated by flow cytometry as previously described^16,81. At least 1×10^4 target cells were analyzed after electronic gating on CellTracker Green. Percent cytotoxicity was calculated as 100×(experimental % dead−spontaneous % dead)/(100−spontaneous % dead), where experimental % dead was the percentage of PI positive target cells in NK cocultures and spontaneous % dead was the percentage of PI positive control target cells cultured in the absence of effector cells.

[2] = test system: NK-92 cells; test: Flow cytometry of mucin levels on NK-92 cells after StcE incubation; type: cell-based; conditions: 100 nM recombinant enzyme
Description: FIG. 11. StcE mucinase effectively remove cell-surface mucin on 1E7 clone and NK cell. (A) Representative confocal images of Muc1-GFP expressing 1E7 cells with and without treatment with 100 nM StcE, StcE ΔX409, or StcE-EE Zip; Alexa Fluor 647 conjugated to GFP nanobody is used to probe cell-surface Muc1-GFP constructs. (Scale bar, 10 μm). (B) Quantification of mean fluorescence intensity of Muc1-GFP and cell-surface Muc1-GFP probed with GFP nanobody in 1E7 cells treated with the indicated concentration of StcE mucinase; results are shown for induction of Muc1-GFP at 100 ng/ml and 1000 ng/ml doxycycline. (C) Cytotoxicity of NK-92 cells against 1E7 cells treated with control buffer, 100 nM StcE mucinase, or 5,000 U/mL PNGase F for 1 hour; Muc1-GFP induction is at the indicated doxycycline concentration (1,100, and 1,000 ng/ml); NK cell to target cell ratio is 5:1. (D) Flow cytometry analysis of mucin levels on NK-92 cells following incubation with control buffer or 100 nM recombinant StcE or StcE ΔX409; StcE surface level after incubation probed with anti His-tag antibody and cell-surface mucin level probed with catalytically dead StcE E447D conjugated to Cy5. Statistical significance is given by ns—not significant, *P≤0.05, **P≤0.01, ***P≤0.001, ****P≤0.0001. Results are a representative dataset from 3 independent replicates. […]

B1: StcE-ΔX409: StcE with a deleted C-terminal X409 lectin domain; NK cells treated with it: StcE-ΔX409 NK (protein)
chain: ADNNSAIYFNTSQPINDLQGSLAAEVKFAQSQILPAHPKEGDSQPHLTSLRKSLLLVRPVKADDKTPVQVEARDDNNKILGTLTLYPPSSLPDTIYHLDGVPEGGIDFTPHNGTKKIINTVAEVNKLSDASGSSIHSHLTNNALVEIHTANGRWVRDIYLPQGPDLEGKMVRFVSSAGYSSTVFYGDRKVTLSVGNTLLFKYVNGQWFRSGELENNRITYAQHIWSAELPAHWIVPGLNLVIKQGNLSGRLNDIKIGAPGELLLHTIDIGMLTTPRDRFDFAKDKEAHREYFQTIPVSRMIVNNYAPLHLKEVMLPTGELLTDMDPGNGGWHSGTMRQRIGKELVSHGIDNANYGLNSTAGLGENSHPYVVAQLAAHNSRGNYANGIQVHGGSGGGGIVTLDSTLGNEFSHEVGHNYGLGHYVDGFKGSVHRSAENNNSTWGWDGDKKRFIPNFYPSQTNEKSCLNNQCQEPFDGHKFGFDAMAGGSPFSAANRFTMYTPNSSAIIQRFFENKAVFDSRSSTGFSKWNADTQEMEPYEHTIDRAEQITASVNELSESKMAELMAEYAVVKVHMWNGNWTRNIYIPTASADNRGSILTINHEAGYNSYLFINGDEKVVSQGYKKSFVSDGQFWKERDVVDTREARKPEQFGVPVTTLVGYYDPEGTLSSYIYPAMYGAYGFTYSDDSQNLSDNDCQLQVDTKEGQLRFRLANHRANNTVMNKFHINVPTESQPTQATLVCNNKILDTKSLTPAPEGLTYTVN
For B1, the “cytotoxicity of enzyme-equipped or enzyme-treated NK cells compared to unmodified NK-92 cells” value [1] was “not significantly enhanced” and the “trimming of mucin-domain containing proteins on NK-92 cells” value [2] was “trimmed similarly”.
